Experimental data from patent US20240352434, “COMPOSITIONS COMPRISING A VARIANT CAS12I3 POLYPEPTIDE AND USES THEREOF” (Arbor Biotechnologies, Inc., published 2024).
Residue numbers refer to the chain shown, from its start.

B1: VEGFA_T2 crRNA ; VEGFA_T2 target (ssRNA ; dsDNA)
RNA: AUAGUGUGUCCUUAGUUGACAUAAUCCUCCACCAGUCAUGGU
DNA 1: AATCCTCCACCAGTCATGGT
DNA 2: ACCATGACTGGTGGAGGATT
B2: AAVS1_T3 crRNA ; AAVS1_T3 target (ssRNA ; dsDNA)
RNA: AUAGUGUGUCCUUAGUUGACAUGUGAGAAUGGUGCGUCCUAG
DNA 1: GTGAGAATGGTGCGTCCTAG
DNA 2: CTAGGACGCACCATTCTCAC
B3: EMX1_T5 crRNA ; EMX1_T5 target (ssRNA ; dsDNA)
RNA: AUAGUGUGUCCUUAGUUGACAUUAUUAUUCCCAUAGGGAAGG
DNA 1: TATTATTCCCATAGGGAAGG
DNA 2: CCTTCCCTATGGGAATAATA

Molecular target: T1, Cas12i3 T977R (Unidentified, T977R)
T1 chain: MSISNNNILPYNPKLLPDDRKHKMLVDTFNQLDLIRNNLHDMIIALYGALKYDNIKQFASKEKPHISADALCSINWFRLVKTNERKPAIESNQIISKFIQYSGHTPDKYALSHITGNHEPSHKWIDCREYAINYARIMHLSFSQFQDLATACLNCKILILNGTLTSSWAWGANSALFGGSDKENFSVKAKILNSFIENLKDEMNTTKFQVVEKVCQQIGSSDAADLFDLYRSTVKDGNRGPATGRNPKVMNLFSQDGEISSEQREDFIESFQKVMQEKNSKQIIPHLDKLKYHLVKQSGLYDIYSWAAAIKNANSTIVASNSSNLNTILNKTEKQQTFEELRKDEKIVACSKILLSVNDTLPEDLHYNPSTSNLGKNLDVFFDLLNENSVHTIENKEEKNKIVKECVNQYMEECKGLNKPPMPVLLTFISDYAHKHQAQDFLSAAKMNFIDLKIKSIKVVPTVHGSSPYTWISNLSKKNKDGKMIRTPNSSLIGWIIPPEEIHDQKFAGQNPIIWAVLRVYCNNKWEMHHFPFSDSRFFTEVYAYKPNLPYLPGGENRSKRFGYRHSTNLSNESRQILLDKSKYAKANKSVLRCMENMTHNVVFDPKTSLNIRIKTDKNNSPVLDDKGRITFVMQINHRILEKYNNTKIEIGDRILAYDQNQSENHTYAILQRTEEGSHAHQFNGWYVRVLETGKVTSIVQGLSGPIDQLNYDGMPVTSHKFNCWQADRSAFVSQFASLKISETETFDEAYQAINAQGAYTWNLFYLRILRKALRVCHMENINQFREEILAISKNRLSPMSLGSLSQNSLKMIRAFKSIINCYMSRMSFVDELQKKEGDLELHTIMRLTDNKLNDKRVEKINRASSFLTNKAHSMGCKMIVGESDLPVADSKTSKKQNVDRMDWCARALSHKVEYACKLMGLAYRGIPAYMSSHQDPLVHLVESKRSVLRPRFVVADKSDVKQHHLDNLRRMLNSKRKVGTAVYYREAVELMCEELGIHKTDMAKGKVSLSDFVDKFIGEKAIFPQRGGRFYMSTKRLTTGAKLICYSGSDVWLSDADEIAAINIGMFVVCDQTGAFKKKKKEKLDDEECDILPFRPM
Assay: cell_activity; fold change in % indels, HEK293T; PAM not stated in example
Method: (§1) Approximately 16 hours prior to transfection, 100 μl of 25,000 HEK293T cells in DMEM/10% FBS+Pen/Strep were plated into each well of a 96-well plate. On the day of transfection, the cells were 70-90% confluent. For each well to be transfected, a mixture of 0.5 μl of Lipofectamine 2000 and 9.5 μl of Opti-MEM was prepared and then incubated at room temperature for 5-20 minutes (Solution 1). […] In the case of negative controls, the crRNA was not included in Solution 2. The solution 1 and solution 2 mixtures were mixed by pipetting up and down and then incubated at room temperature for 25 minutes. Following incubation, 20 μL of the Solution 1 and Solution 2 mixture were added dropwise to each well of a 96 well plate containing the cells. 72 hours post transfection, cells are trypsinized by adding 10 μL of TrypLE to the center of each well and incubated for approximately 5 minutes. 100 μL of D10 media was then added to each well and mixed to resuspend cells. The cells were then spun down at 500 g for 10 minutes, and the supernatant was discarded. QuickExtract buffer was added to ⅕ the amount of the original cell suspension volume. Cells were incubated at 65° C. for 15 minutes, 68° C. for 15 minutes, and 98° C. for 10 minutes.
(§2) Samples for Next Generation Sequencing were prepared by two rounds of PCR. The first round (PCR1) was used to amplify specific genomic regions depending on the target. PCR1 products were purified by column purification. Round 2 PCR (PCR2) was done to add Illumina adapters and indexes. Reactions were then pooled and purified by column purification. Sequencing runs were done with a 150 cycle NextSeq v2.5 mid or high output kit.

Binder | binding signal
B1 | 1.35 fold of wild-type
B2 | 2.37 fold of wild-type
B3 | 1.04 fold of wild-type

Molecular target: T2, Cas12i3 S536R K583R N711R C724R (Unidentified, S536R,K583R,N711R,C724R)
T2 chain: T1 chain with S536R, K583R, N711R, C724R, R977T
Assay: as above
Method: as §1, §2

Binder | binding signal
B1 | 1.1 fold of wild-type
B2 | 0.8 fold of wild-type
B3 | 0.72 fold of wild-type
